Measured values published in article PMC5366180.

What was measured:
[1] = biological target: T1, protein tyrosine kinase-7 (PTK7) ((Jurkat T-cells)) (UniProt Q13308); experiment: competition (AFM single-molecule force spectroscopy); conditions: 1 uM free sgc8c blocks; 38.3% before block; Aptamer tips prepared and stored in PBS; fixed Jurkat T-cells on Cell-Tak glass; pulling speeds 500-24000 nm/s; measurement buffer, pH and temperature not …; scale: % residual binding probability of tip sgc8c
T1 sequence: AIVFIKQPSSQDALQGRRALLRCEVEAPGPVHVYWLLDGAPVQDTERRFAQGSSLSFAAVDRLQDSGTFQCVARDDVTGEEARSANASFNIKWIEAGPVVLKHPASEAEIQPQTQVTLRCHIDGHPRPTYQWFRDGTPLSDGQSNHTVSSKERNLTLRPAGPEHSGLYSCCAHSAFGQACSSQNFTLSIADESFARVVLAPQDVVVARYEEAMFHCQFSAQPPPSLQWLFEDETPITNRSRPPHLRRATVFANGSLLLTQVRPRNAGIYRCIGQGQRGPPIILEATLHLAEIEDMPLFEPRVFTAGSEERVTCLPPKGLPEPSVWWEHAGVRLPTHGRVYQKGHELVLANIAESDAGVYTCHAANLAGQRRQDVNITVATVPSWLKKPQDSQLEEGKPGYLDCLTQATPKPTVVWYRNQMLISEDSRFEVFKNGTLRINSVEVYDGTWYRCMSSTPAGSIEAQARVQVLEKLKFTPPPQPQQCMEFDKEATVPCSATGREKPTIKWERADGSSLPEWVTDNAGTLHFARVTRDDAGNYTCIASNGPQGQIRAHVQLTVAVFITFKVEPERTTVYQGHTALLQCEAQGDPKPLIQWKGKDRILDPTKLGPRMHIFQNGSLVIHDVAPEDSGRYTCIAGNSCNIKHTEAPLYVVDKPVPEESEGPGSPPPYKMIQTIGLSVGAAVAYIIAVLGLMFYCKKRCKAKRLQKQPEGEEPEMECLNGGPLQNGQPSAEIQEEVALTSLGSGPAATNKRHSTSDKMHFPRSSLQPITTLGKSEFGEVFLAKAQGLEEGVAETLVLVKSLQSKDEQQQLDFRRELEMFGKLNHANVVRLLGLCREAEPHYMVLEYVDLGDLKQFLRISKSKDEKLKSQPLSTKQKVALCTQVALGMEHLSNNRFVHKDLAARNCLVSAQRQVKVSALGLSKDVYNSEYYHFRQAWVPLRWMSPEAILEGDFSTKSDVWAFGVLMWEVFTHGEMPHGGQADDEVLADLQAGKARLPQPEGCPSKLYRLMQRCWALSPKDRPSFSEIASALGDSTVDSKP

[2] = biological target: T1, protein tyrosine kinase-7 (PTK7) ((Jurkat T-cells)); experiment: AFM single-molecule force spectroscopy; conditions: fixed Jurkat T-cells on Cell-Tak glass, pulling speeds 500-24000 nm/s, measurement buffer, pH and temperature not …
[3] = biological target: T1, protein tyrosine kinase-7 (PTK7) ((Jurkat T-cells)); experiment: cited value; conditions: 5' NH2 or 5' SH; Aptamer tips prepared and stored in PBS; fixed Jurkat T-cells on Cell-Tak glass; pulling speeds 500-24000 nm/s; measurement buffer, pH and temperature not …; cited from earlier work

## ATCTAACTGCTGCGCCGCGAAAATACTGTACGGTTAGA [sgc8c (free)]
[1]
  binding signal: 10.2

## ATCTAACTGCTGCGCCGCGAAAATACTGTACGGTTAGA [sgc8c (tip-tethered)]
[2]; koff 5.16 ± 0.19 s-1, x_beta 0.65 ± 0.01 Å, 5' NH2 or 5' SH, Aptamer tips prepared and stored in PBS
  binding signal (% binding probability): 38.3
[3]
  Kd: 0.8 nM

## CACCGGGAGGATAGTTCGGTGGCTGTTCAGGGTCTCCTCCCGGTG [TDO5]
[2]; background level, stated not to bind PTK7, 5' NH2, Aptamer tips prepared and stored in PBS
  binding signal (% binding probability): 8.27
